# B1: TPR t1 (parent)
# chain: GACCAAUCUGCCCUCAGAGCUCGAGAACAUCUUCGGAUGCAGAGGAGGCAGGCUUCGGUGGCGCGAUAGCGCCAACGUCCUCAACCUCCAAUGCAUCCCACCACAUGAUGAUGCCUGAAGAGCCUUGGUUUUUUG
# Variants of: B1
# Test: polymerase ribozyme fitness, log enrichment relative to wild type (log ratio); higher = more active; in vitro selection for triplet polymerase activity
# In short: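 One round of in vitro selection, in triplicate, was applied to PCR-built, transcribed mutant libraries of each subunit of a heterodimeric triplet polymerase ribozyme. The steps were annealing with a biotinylated primer, partner subunit and triplets, incubation frozen at −7 °C, gel excision of extended constructs, streptavidin-bead capture and RT-PCR. Fitness is the logarithm, base 2, of genotype enrichment over wild-type enrichment from inverse-variance-weighted replicate averages of Illumina-sequenced inputs and outputs, keeping genotypes with ≥10 input reads and ≥1 read per output.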
row,Variant,polymerase ribozyme fitness (log ratio)
1,U112C C123A,-0.0765
2,U112C U132A,1.65
3,U106G G110C U112C,-5.6
4,G107A G122A,-5.18
5,G110A A118G,-1.12
6,C104U G113C C123A,-3.61
7,G110A G117U,-4.78
8,A95C U116C U129A U131C G135U,-3
9,G107C G110A G117A U130C,-6.86
10,C101A G107U U112G,-6.92
11,G113C U133A,-2.13
12,A105U U126A U129A U130G,-6
13,G113A G122A,-2.77
14,C102U A119G,-0.237
15,A103C C104A,-2.67
16,G93A C98U,-1.72
17,C114A G128U,-3.33
18,C114A G128C,-3.78
19,A95U A103G,-6.8
20,C94G C123U,0.403
21,C97U C123G U126A,0.329

row,Variant,polymerase ribozyme fitness (log ratio)
1,C94G G113A,-3.13
2,C97U U106A U132G U133A,0.00837
3,C97G A119G,-2.68
4,C98U G117C,-5.29
5,G110A G122A C123U,-2.1
6,U92C U125G,-1.76
7,A103G U112G,-4.71
8,G107U G113A,-3.27
9,C97U U106G,-2.7
10,U112G G128C,-2.91
11,C115A U126C,-0.397
12,G93U C98U G120C,-3.66
13,G107A A108G G120A C124A,-3.55
14,C102G U112A,-5.7
15,U96A U112C G127C,-0.056
16,C102A U125G,-2.8
17,C97G,-4.4
18,C97U,-0.53
19,C97A,-4.67
20,C99A U112A G120A,-5.93
21,C101U A108U U109G,-6.14

row,Variant,polymerase ribozyme fitness (log ratio)
1,A111U C123U G127C,-4.76
2,U109G A118G,-5.14
3,G110A G128U,-3.47
4,U96A G128C,-3.28
5,U96A C98U,-3.4
6,C104U U106A,-0.522
7,A103C C123A C124A,-3.52
8,A105U G113A,-4.72
9,C114U U129A,-3.98
10,C114U U129G,-4.52
11,G113A C115U,-3.6
12,C94U C101A,-1.52
13,A95G C98U G113A A118G,-3.57
14,A100C C104U,-0.176
15,A95C C101U U106A,-0.358
16,A111U G113C C115G,-7.15
17,C114G G127A,-4.97
18,C98G G120C,-3.19
19,U96C C123G,1.78
20,A103C U132A,-4.12
21,C101U U109G A111U,-4.63

row,Variant,polymerase ribozyme fitness (log ratio)
1,C97U U116G,-2.81
2,C97U G110A,-1.67
3,A103C G107A U112G G113A,-6.72
4,U109A,-5.11
5,U109G,-4.35
6,U109C,-2.41
7,G93A C114A G122A U131A,-3.27
8,G107A U130C,-4.85
9,G93A G135C,-1
10,G110C U133A,-4.65
11,G110C U125C,-2.68
12,C99U G117U,-3.93
13,G113C G127C,-3.73
14,G113A G135U,-2.05
15,G113U U129A,-3.53
16,C104U U116C,-0.608
17,G93C U96C G110A A118C,-2.57
18,G93A A100G U112C U131A,-2.69
19,C114G G135U,-2.93
20,A103U G113A,-3.81
